In paper PMC5372380:

Target: BG505 SOSIP.664 trimer, His-tagged (HIV-1 isolate BG505)
Test: SPR

Work on ACS202 Fab yielded a stoichiometry N (mAb per trimer) of 3.
